# According to article PMC5727443:
# Target: hypoxia-inducible factor 2α (HIF-2α), wild type (UniProt Q99814)
# Test: co-IP
# Sequence of UniProt Q99814 (Q99814 whole entry): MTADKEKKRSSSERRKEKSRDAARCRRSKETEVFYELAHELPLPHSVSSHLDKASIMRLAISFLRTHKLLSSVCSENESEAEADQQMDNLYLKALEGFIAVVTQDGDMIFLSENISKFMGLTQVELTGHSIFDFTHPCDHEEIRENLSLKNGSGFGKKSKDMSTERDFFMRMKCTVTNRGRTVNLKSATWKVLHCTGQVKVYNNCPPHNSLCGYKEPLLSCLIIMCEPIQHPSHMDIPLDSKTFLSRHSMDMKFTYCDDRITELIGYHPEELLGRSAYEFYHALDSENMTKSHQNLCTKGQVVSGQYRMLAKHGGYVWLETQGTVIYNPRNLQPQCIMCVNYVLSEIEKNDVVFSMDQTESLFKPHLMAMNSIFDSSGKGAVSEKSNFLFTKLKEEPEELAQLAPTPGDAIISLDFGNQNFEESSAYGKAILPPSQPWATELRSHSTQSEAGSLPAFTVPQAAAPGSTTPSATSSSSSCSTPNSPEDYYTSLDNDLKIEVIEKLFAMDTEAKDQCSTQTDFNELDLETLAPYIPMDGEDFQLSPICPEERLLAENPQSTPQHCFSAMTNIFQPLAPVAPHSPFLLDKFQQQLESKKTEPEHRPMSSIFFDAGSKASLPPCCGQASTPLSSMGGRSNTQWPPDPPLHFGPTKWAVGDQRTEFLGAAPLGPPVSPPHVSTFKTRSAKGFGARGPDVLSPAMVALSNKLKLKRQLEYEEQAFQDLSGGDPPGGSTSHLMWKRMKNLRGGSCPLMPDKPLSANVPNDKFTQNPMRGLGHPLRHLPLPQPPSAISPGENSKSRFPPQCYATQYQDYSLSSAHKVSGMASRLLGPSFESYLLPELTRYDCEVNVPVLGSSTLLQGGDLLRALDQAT
substance,measurement,value
"mouse Tet1 (wild type, whole) (enzyme)","PHD2 bound to HIF-2α with Tet1 co-expressed, fold of without Tet1",0.47 fold
same,"pVHL bound to HIF-2α with Tet1 over-expressed, fold of without Tet1",0.7 fold
